Test results from US20020193308A1.

Biological target: polyclonal antibodies (lot RF29), raised in rabbits against natural isolate of UK114
Test: competition ELISA: soluble antigen titrated against rabbit antiserum (1:10,000) on plates coated with natural UK114; apparent Ka is the reciprocal of the antigen concentration at the A50 point

B1: recombinant UK114 (E.coli-derived, SEQ ID NO:1) (protein)
chain: SSLVRRIISTAKAPAAIGPYSQAVLVDRTIYISGQLGMDPASGQLVPGGVVEEAKQALTNIGEILKAAGCDFTNVVKATVLLADINDFSAVNDVYKQYFQSSFPARAAYQVAALPKGGRVEIEAIAVQGPLTTASV
- Ka: 4.9e+08 M⁻¹
